The values below come from patent publication US20240252601A1.

Common to all, as to assay: cell-based or functional assay
Test [1] deals with SARS-CoV2 Spike, Omicron BA.1 variant (on pseudovirus) (SARS-CoV2).
Test [2] addresses SARS-CoV2 Spike D614G (on pVSV-Luc-SARS-CoV2-S pseudovirus) (SARS-CoV2) (UniProt P0DTC2).
For test [3], the target named is SARS-CoV2 Spike, Omicron BA.4/BA.5 variant (on pseudovirus) (SARS-CoV2).
Test [4] addresses SARS-CoV2 Spike, Omicron BA.2 variant (on pseudovirus) (SARS-CoV2).
Test [5] deals with SARS-CoV2 Spike, Omicron BA.2.12.1 variant (on pseudovirus) (SARS-CoV2).
Test [6] has as its target SARS-CoV2 Spike, Omicron BA.4.6 variant (on pseudovirus) (SARS-CoV2).
Test [7] has as its target SARS-CoV2 Spike, Omicron XBB1.5 variant (on pseudovirus) (SARS-CoV2).

Sequence of ACE2 (615/615)-IgG-Fc (Q9BYF1 18-615 limits assumed): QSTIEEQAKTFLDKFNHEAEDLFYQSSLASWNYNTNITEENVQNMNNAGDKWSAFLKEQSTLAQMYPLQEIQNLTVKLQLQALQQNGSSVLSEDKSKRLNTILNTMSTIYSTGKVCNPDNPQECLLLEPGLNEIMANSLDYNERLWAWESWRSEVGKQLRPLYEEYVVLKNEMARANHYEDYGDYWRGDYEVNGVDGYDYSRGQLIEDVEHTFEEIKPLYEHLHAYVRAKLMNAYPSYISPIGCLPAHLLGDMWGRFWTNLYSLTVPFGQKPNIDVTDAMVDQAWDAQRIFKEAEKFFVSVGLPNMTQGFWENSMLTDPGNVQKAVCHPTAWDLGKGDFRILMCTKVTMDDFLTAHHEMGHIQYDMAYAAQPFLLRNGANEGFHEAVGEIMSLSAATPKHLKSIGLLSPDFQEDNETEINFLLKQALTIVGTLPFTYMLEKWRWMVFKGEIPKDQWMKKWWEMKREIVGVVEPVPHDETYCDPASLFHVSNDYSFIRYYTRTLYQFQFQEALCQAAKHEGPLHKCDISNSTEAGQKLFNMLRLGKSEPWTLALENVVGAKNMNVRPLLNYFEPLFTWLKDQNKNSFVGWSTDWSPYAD
Sequence of ACE2 (615/615)-IgG-Fc (Q9BYF1 18-615 limits assumed): as above

“ACE2 (615/615)-IgG-Fc (from UniProt Q9BYF1 18-615; Q9BYF1 18-615) (Fc fusion)”: the Fold reduction from against D614G was determined as 1.25 fold in test [1]; 19.4 fold in test [2]; 11.6 fold in test [3]; 3.51 fold in test [4]; 2.32 fold in test [5]; 6.32 fold in test [6]. The IC50 [M], neutralization was determined as 6.61e-12 M in test [1]; 1.03e-10 M in test [2]; 6.17e-11 M in test [3]; 1.86e-11 M in test [4]; 1.23e-11 M in test [5]; 3.35e-11 M in test [6].

Turning to “ACE2 v2.4 (615)-Fc (x2), second row of this label in Table 6 (Fc fusion)”, the Fold reduction from against D614G is 240 fold in test [1]; 515 fold in test [2]; 317 fold in test [3]; 515 fold in test [4]; 468 fold in test [5]; 343 fold in test [6]. Besides, the IC50 [M], neutralization came to 1.27e-09 M in test [1]; 2.73e-09 M in test [2]; 1.68e-09 M in test [3]; 2.73e-09 M in test [4]; 2.48e-09 M in test [5]; 1.82e-09 M in test [6].

Regarding REGEN-COV (REGN10933+REGN10987), the IC50 [M], neutralization in test [2] is 5.2e-12 M; in test [7], over 2e-08 M.
